{"source": "paper PMC12170907", "about": "(2025)", "binders": {"B1": {"name": "3× HA-tagged FabHBC (Fab, V domains shown)", "VH": "ELQLVESGGGWVQPGGSQRLSCAASGRIFRSFYMSWVRQAPGKGLEWVATINQDGSEKLYVDSVKGRFTISRDNAKNSLFLQMNNLRVEDTAVYYCAAWSGNSGGMDVWGQGTTVSVSS", "VL": "SYELTQPPSVSVSPGQTVSIPCSGDKLGNKNVCWFQHKPGQSPVLVIYEVKYRPSGIPERFSGSNSGNTATLTISGTQAMDEAAYFCQTWDSTTVVFGGGTRLTVL"}}, "target": "Superfolder-GFP-tagged M-HBsAg (serotype ayw, genotype D3) (Hepatitis B virus (serotype ayw, …))", "experiment": "ELISA", "data": [{"binder": "B1", "values": [{"measurement": "Kd", "value": 0.103, "unit": "nM"}]}]}
